How the values were obtained:
Format in all cases: in vivo, human
LSCs = assay: Methylcellulose colony assays of patient mononuclear cells (LSC number/frequency, ELDA)
Procedure: FIGS. 9A-9F αCD70 mAb treatment reduces CD34^+CD38^− AML stem/progenitor cell frequencies in AML patients. (FIG. 9A) Colony formation of P2. 10^4 BM MNCs of patient P002 at diagnosis (SCR) and 14 days after administration of ARGX110 (1 mg/kg i.v., time point 0, or C1D1) were plated in methylcellulose and colony formation was assessed 2 weeks later. (FIG. 9B) Fold change in colony formation of different patients treated with indicated doses of ARGX110. (FIG. 9C) Colony formation at limiting dilution from P2. (FIG. 9D) Stem cell frequencies at SCR and Time point 0 determined in enhanced limiting dilution experiments for P2 and different patients treated with indicated doses of ARGX110. Data are represented as mean±S.D. Statistics: (a, b, e) Student's t-test; (FIG. 9E): χ^2 test; **, P<0.01; ***, P<0.001. (FIG. 9F) Colony formation of P2. 10^4, 5×10^3, 10^3 and 10^2 BM MNCs of patient P002 at diagnosis (SCR), 14 days after administration of ARGX110 (1 mg/kg i.v., time point 0, or C1D1) and after combination treatment (“combi”) were plated in methylcellulose and colony formation was assessed 2 weeks later.
(§1) To assess bone marrow blasts, bone marrow aspirates taken at the various time points were analysed. Methylcellulose colony assays using FACS sorted monocytes (mononuclear cells (CD45^dim) were selectively sorted by excluding doublets, dead cells and lymphocytes using Annexin V and antibodies for CD19 and CD4/CD8) were used to assess the number of LSCs in the bone marrow. In addition, bone marrow blast percentages were also assessed by cell morphology and flow cytometric analysis.
To further explore the impact of the mono and combination therapies on the LSC populations in patients, methylcellulose colony assays using FACS sorted ex vivo monocytes were performed. Mononuclear cells (CD45^dim) were selectively sorted by excluding doublets, dead cells and lymphocytes using Annexin V and antibodies for CD19 and CD4/CD8 and serially plated on methylcellulose for 14 days.
Bone marrow aspirate taken at day 1 was compared to bone marrow aspirate taken before administration of the ARGX-110 loading dose. Methylcellulose colony assays using FACS sorted monocytes (mononuclear cells (CD45^dim) were selectively sorted by excluding doublets, dead cells and lymphocytes using Annexin V and antibodies for CD19 and CD4/CD8) were used to assess the number of LSCs in the bone marrow.

[1] = ARGX-110 concentration in bone marrow aspirates versus plasma
Procedure: Concentration of ARGX-110 in bone marrow aspirates was measured in limited samples and compared to the matching plasma samples.

blasts = assay: Phase I/II trial: blasts in bone marrow and peripheral blood (cytomorphology, flow cytometry, MRD)
Procedure: (§2) FIGS. 6A-6C Bone marrow (BM) blast load was assessed by cytomorphology (FIG. 6A), and flow cytometry using leukemia-associated immunophenotype (LAIP) gating (FIG. 6B) and blast gating (SSClow CD45dim; FIG. 6C). The latter method was used to determine measurable/minimal residual disease (MRD) status of the patient.
as §2, with “7A-7C Peripheral blood (PB)” for “6A-6C Bone marrow (BM)”, “7A),” for “6A),”, “7B)” for “6B)”, “CD45 dim;” for “CD45dim;”, “7C).” for “6C).”
Minimal residual disease (MRD) assessments were performed on bone marrow aspirates and/or whole blood collected at time points as specified in FIG. 5. Flow cytometry was utilized as the primary method of MRD analysis. Suitable flow cytometry markers for MRD assessment and determining AML subtype include CD16, CD13, CD34, CD117, CD11 b, CD10, HLA-DR, CD45, CD35, CD64, IREM-2, CD36, CD105, CD14, CD33, CD71, CD36, CD105, CD33, CD71, cTdT, CD56, CD7, CD19, cMPO, cLactoferrin, cLysozyme. An additional panel was used as a part of the trial, focusing on CD70, CD27 expression as well as markers indicative of stem cell potential or myeloid differentiation: CD27, CD70, CD34, CD117, CD11 b, HLA-DR, CD45, CD38, and CD123. When available, flow cytometry results were compared to other molecular approaches such as polymerase chain reaction (PCR) test.
For each patient, the number of blasts in bone marrow and peripheral blood were assessed at various time-points as outlined in FIG. 5.
as §1

[2] = patient 1001002, loading dose 1 mg/kg
[3] = patient 1001005, 3 mg/kg, Cycle 7 Day 2
[4] = patient 1001007, 10 mg/kg, Cycle 4 Day 1
[5] = patient 1001001, 1 mg/kg with AZA, C3D1
[6] = patient 1001001, 1 mg/kg with AZA, C4D1
[7] = patient 1001002, 1 mg/kg with AZA, C2D17
[8] = patient 1001002, single dose 1 mg/kg

B1: ARGX-110: IgG1 anti-CD70 antibody with defucosylated Fc region; VH SEQ ID NO: 4, VL SEQ ID NO: 8 (antibody, V domains shown)
VH: EVQLVESGGGLVQPGGSLRLSCAASGFTFSVYYMNWVRQAPGKGLEWVSDINNEGGTTYYADSVKGRFTISRDNSKNSLYLQMNSLRAEDTAVYYCARDAGYSNHVPIFDSWGQGTLVTVSS
VL: QAVVTQEPSLTVSPGGTVTLTCGLKSGSVTSDNFPTWYQQTPGQAPRLLIYNTNTRHSGVPDRFSGSILGNKAALTITGAQADDEAEYFCALFISNPSVEFGGGTQLTVLG
modifications: IgG1, defucosylated Fc; Custom antibody fragment
LSCs; FIG. 9F, after monotherapy (C1D1) and combination therapy (C4D1)
  reduction in LSC frequency compared to baseline: ~24 fold
LSCs; following therapy (data not shown)
  number of cells per colony: reduced
LSCs; monotherapy, then combination
  circulating LSC levels: reduced
LSCs; patient 1001001, single dose 1 mg/kg, day 1 vs before loading dose, ELDA
  factor of reduction of the number of LSCs in the bone marrow: 140,000
LSCs; [2]
  cell number per colony: reduced
  factor of reduction of LSCs in the bone marrow: 2
LSCs; patient 1001002, loading dose 1 mg/kg, all informative serial dilution concentrations
  decrease of colony formation: greater than 50%
[1]; [3]
  CARGX-110 BM aspirate: 33.1 µg/mL
  CARGX-110 plasma: 37.3 µg/mL
[1]; [4]
  CARGX-110 BM aspirate: 117.7 µg/mL
  CARGX-110 plasma: 126.6 µg/mL
[1]; patients 1001005 and 1001007
  concentration in bone marrow aspirates versus plasma: comparable to the plasma levels
blasts; following monotherapy, C1D1 vs earlier
  PB blast percentage: reduced
blasts; in vivo
  bone marrow blasts according to MRD criteria: significantly reduced
blasts; majority of patients, by C1D1 following monotherapy
  bone marrow blast percentage: at least partially or completely reduced by C1D1
blasts; [5]
  BM blasts by flow cytometry: 2.8%
  MRD for peripheral blood: 0.3%
  minimal residual disease analysis (MRD), bone marrow: 0.2%
blasts; [6]
  peripheral blood blast percentage by cell morphology: 0%
  peripheral blood blast percentage by flow cytometry: 0.8%
blasts; patient 1001001, 1 mg/kg with AZA, C4D17
  peripheral blood MRD class: MRD-negative
blasts; patient 1001001, 1 mg/kg with AZA, after first complete cycle (C2D1)
  peripheral blood blasts: cleared
blasts; patient 1001001, single (loading) dose 1 mg/kg
  blast cell populations by cell morphology and flow cytometry: reduction in bone marrow and in peripheral blood
blasts; [7]
  percentage of blasts in peripheral blood by cell morphology: 0%
  percentage of blasts in peripheral blood by flow cytometry: 0.8%
blasts; patient 1001002, 1 mg/kg with AZA, end of cycle 1 (C2D1)
  overall blast percentage in peripheral blood: approaching zero
blasts; patient 1001002, after loading dose 1 mg/kg (C1D1 vs screening)
  overall blast percentage in peripheral blood: fell
blasts; [8]
  percentage of total blasts in bone marrow by cell morphology: an increase was observed
  percentage of total blasts in bone marrow by flow cytometry: appeared to be reduced
blasts; patient 1001003, C1D1
  blast percentage: stable
blasts; patient 1001003, with AZA, 1 cycle (C2D1)
  peripheral blasts: no peripheral blasts
blasts; under combination therapy with aza, from C1D1 onwards
  PB blast percentage: further reduced

— patent publication US20190106498A1, “TREATMENT FOR ACUTE MYELOID LEUKEMIA” (priority 2017, published 2019)
